Results as given in US8975044B2, “Polynucleotides encoding for frizzled-binding agents and uses thereof” (OncoMed Pharmaceuticals, Inc., priority 2008, dated 2015).

T1: FZD8 (Homo sapiens, UniProt Q9H461, S109Q)
T1 construct: N-terminus of the Fri domain of FZD8 in turn fused to the transmembrane domain and intracellular domain of CD4 protein; expressed in transfected cells; host or cells: HEK293
T1 sequence (Q9H461 28-158 S109Q): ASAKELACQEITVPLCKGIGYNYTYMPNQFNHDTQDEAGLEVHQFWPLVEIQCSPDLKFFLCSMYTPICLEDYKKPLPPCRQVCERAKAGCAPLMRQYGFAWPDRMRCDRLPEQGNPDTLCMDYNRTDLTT

T2: FZD8 (Homo sapiens, UniProt Q9H461, D83Q/P82S)
T2 construct: N-terminus of the Fri domain of FZD8 in turn fused to the transmembrane domain and intracellular domain of CD4 protein; expressed in transfected cells; host or cells: HEK293
T2 sequence (Q9H461 28-158 P82S/D83Q): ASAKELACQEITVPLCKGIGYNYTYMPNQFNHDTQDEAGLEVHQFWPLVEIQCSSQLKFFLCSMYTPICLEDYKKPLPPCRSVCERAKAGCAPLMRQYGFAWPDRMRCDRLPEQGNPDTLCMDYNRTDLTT


Key:
[1] = system: OMP-Pn4 tumors; assay: Limiting dilution assay of cancer stem cell frequency in treated OMP-Pn4 tumors; type: in vivo, NOD/SCID mice; details: tumors after 41 days treatment; 30-810 cells re-injected, 75 days; L-Calc
Procedure: Control and treated tumors from the OMP-Pn4 xenograft study described above (Example 7) were harvested at the end of 41 days treatment. The tumors were processed and dissociated into single cells. Tumor cells were then incubated with biotinylated mouse antibodies (α-mouse CD45-biotin 1:200 dilution and rat α-mouse H2 Kd-biotin 1:100 dilution, BioLegend, San Diego, Calif.) on ice for 30 min followed by addition of streptavidin-labeled magnetic beads (Invitrogen, Carlsbad, Calif.) to remove mouse cells. The remaining human cells in the suspension were collected, counted and diluted to appropriate cell doses (30, 90, 270 and 810 cells), mixed in the mixture of 1:1 (v/v) FACS buffer and Matrigel and injected subcutaneously in NOD/SCID mice (10 mice per cell dose per treatment group). Each dot in FIG. 40 represents the tumor volume of an individual mouse. The percentage of mice with detectable tumors was determined in all groups injected with anti-FZD antibody treated tumor cells and compared to the percentage of mice with detectable tumors in the controls. For example, the number of mice injected with 810 control-treated tumor cells that have detectable tumors was determined and compared to the number of mice injected with 810 FZD-antibody treated tumor cells that have detectable tumors. […]

[2] = system: OMP-C28 tumors; assay: Flow cytometry of ESA and CD44 on cells of treated OMP-C28 tumors; type: in vivo, NOD/SCID mice; details: tumors harvested day 48; control antibody 64%
Procedure: Control and treated tumors from the OMP-C28 xenograft study described above (Example 7) were harvested at the end of the study (day 48). The tumors were processed and dissociated into single cells. Tumor cells were then incubated with biotinylated mouse antibodies (α-mouse CD45-biotin 1:200 dilution and rat α-mouse H2 Kd-biotin 1:100 dilution, BioLegend, San Diego, Calif.) on ice for 30 min followed by addition of streptavidin-labeled magnetic beads (Invitrogen, Carlsbad, Calif.) to remove mouse cells with the aid of a magnet.
For analysis of cell surface markers, the single tumor cell suspension was stained with anti-ESA (Biomeda) and anti-CD44 (BD Biosciences) antibodies which were directly conjugated to fluorochromes. Dead cells were excluded by using the viability dye DAPI. Flow cytometry was performed using a FACS Aria (Becton Dickinson). Side scatter and forward scatter profiles were used to eliminate cell clumps.

[3] = system: OMP-LU24 human lung tumors; assay: OMP-LU24 lung tumor xenograft growth; type: in vivo, NOD-SCID mice; details: antibody 10 mg/kg IP once per week, Taxol 15 mg/kg IP once per week
Procedure: 50,000 OMP-LU24 human lung tumor cells were injected subcutaneously in NOD-SCID mice. Tumors were allowed to grow for 27 days until they reached an average volume of 143 mm^3. The animals were randomized into 4 groups (n=9 per group) and treated with either control antibody (“Control Ab”), anti-FZD 18R5 (“18R5”), Taxol® (“Taxol”) or the combination of 18R5 plus Taxol® (“18R5+Taxol”). Antibodies were dosed at 10 mg/kg intraperitoneal (IP), once per week and Taxol® was dosed at 15 mg/kg, IP, once per week.

[4] = system: PE13 breast tumors; assay: PE13 breast tumor limiting dilution assay (LDA); type: in vivo, mice; details: antibody 20 mg/kg once per week; 50, 150 or 500 cells re-injected, 59 days; L-calc
Procedure: PE13 breast tumor limiting dilution assay (LDA) study with 18R5 mAb: Animals bearing PE13 breast tumors were treated with either control antibody (gray circles), 18R5 (open triangles), taxol (black circles), or the combination of taxol and 18R5 (open squares). Taxol was dosed at 15 mg/kg twice per week and the antibodies were dosed 20 mg/kg once per week. Tumors were harvested and the human tumor cells were purified by lin depletion. 50, 150, or 500 tumor cells were injected into a new cohort of mice (n=10 per cell dose). Tumor growth frequency was monitored after 59 days and used to calculate the CSC frequency (L-calc).

[5] = biological target: T1, FZD8; assay: Epitope mapping by FACS on FZD8 Fri domain variants on HEK293 cells; type: binding; details: amino acid 109S changed to 109Q
Procedure: (§1) To identify the FZD epitope recognized by the 18R8 IgG antibody, epitope mapping was performed. Flow cytometry analysis of cell surface expressed FZD was utilized to measure antibody binding. Mammalian expression plasmid vectors comprising a CMV promoter upstream of polynucleotides that encode an N-terminal signal sequence FLAG epitope tag fused to the N-terminus of the Fri domain of FZD8 in turn fused to the transmembrane domain and intracellular domain of CD4 protein were generated by standard recombinant technology. This expression construct allows expression of the FZD8 Fri domain on the cell surface, as well as expression of a FLAG epitope tag to monitor expression. Site-direct mutagenesis was then used to modify selected amino acids within the extracellular domain of FZD. HEK293 cells were co-transfected with expression vectors encoding the FZD and the transfection marker GFP. Forty-eight hours post-transfection, cells were collected in suspension and incubated on ice with anti-FZD antibody or control IgG to detect background antibody binding. The cells were washed and primary antibodies detected with anti-antibody secondary antibodies conjugated to a fluorescent chromophore. Labeled cells were then analyzed by flow cytometry to measure the binding of anti-FZD antibody to cell surface FZD.
(§2) Epitope mapping for the anti-FZD antibody 44R24 was performed in a manner similar to that described above in Example 5 for the antibodies 18R8 and 18R5. The ability of 44R24 to bind to a similar epitope as 18R8 was assessed by flow cytometry using a series of amino acid variants of FZD8 previously shown to disrupt binding of 18R8 (see Example 5 and FIGS. 6 and 7).

[6] = biological target: T2, FZD8; assay: as above; type: binding; details: amino acid residues 82-83 mutated from PD to SQ
Procedure: as §1, §2

Molecule | cancer stem cell frequency [1] | bulk tumor population expressing both ESA and CD44 at high levels (double positive) [2] [%] | xenograft tumor growth [3] | breast cancer stem cell frequency [4] | binding to FZD8 variant [5] | binding to FZD8 variant [6]
18R5: human anti-FZD antibody; VH SEQ ID NO:10 (as 18R8), VL SEQ ID NO:14; binds FZD1, 2, 5, 7, 8 (antibody, V domains shown, 18R5/18R8 heavy chain variable region (VH); 18R5 light chain variable region (VL)) VH: EVQLVESGGGLVQPGGSLRLSCAASGFTFSHYTLSWVRQAPGKGLEWVSVISGDGSYTYYADSVKGRFTISSDNSKNTLYLQMNSLRAEDTAVYYCARNFIKYVFANWGQGTLVTVSS VL: DIELTQPPSVSVAPGQTARISCSGDNIGSFYVHWYQQKPGQAPVLVIYDKSNRPSGIPERFSGSNSGNTATLTISGTQAEDEADYYCQSYANTLSLVFGGGTKLTVLG | reduced cancer stem cell frequency | 40 | inhibits OMP-LU24 xenograft tumor growth | Reduction of breast cancer stem cell frequency |  | 
18R8: human anti-FZD antibody from phage display; VH SEQ ID NO:10, VL SEQ ID NO:12; binds FZD1, 2, 5, 7, 8 (antibody, V domains shown, 18R5/18R8 heavy chain variable region (VH); 18R8 light chain variable region (VL)) VH: EVQLVESGGGLVQPGGSLRLSCAASGFTFSHYTLSWVRQAPGKGLEWVSVISGDGSYTYYADSVKGRFTISSDNSKNTLYLQMNSLRAEDTAVYYCARNFIKYVFANWGQGTLVTVSS VL: DIELTQPPSVSVAPGQTARISCSGDKLGKKYASWYQQKPGQAPVLVIYEKDNRPSGIPERFSGSNSGNTATLTISGTQAEDEADYYCSSFAGNSLEVFGGGTKLTVLG |  |  |  |  | no appreciable effect | largely unaffected
